Results taken from the supplement of paper PMC10567573.
± gives the standard deviation.

Assay: protein stability index of a GFP-peptide fusion (GPS, HEK-293T) (PSI 1-6); higher = more stable
Conditions: c terminus: a fixed tail appended
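Further: 24-mer peptide tiles fused after GFP, lentivirally expressed, FACS-sorted into six equal bins by GFP/DsRed ratio, decoded by Illumina sequencing, PSI is the read-weighted mean bin number.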

| Sequence | protein stability index (treatment: DMSO) | protein stability index (treatment: MLN4924 1 uM, 8 h) |
| --- | --- | --- |
| DSAQVARLWGIRKNRPAMNYDKLS [SPDEF] | 3.24 ± 0.22 | 3.35 ± 0.23 |
| ELYVFGGVRSREDAQGSEMVTCKS [GAN] | 4.08 ± 0.38 | 4.15 ± 0.34 |
| AENSPYLNPQLVQPAKKPLLWSDP [ESRRG] | 3.9 ± 0.25 | 3.81 ± 0.23 |
| ILLLDGAAWLTLWVFGTSFLPFLL [FADS1] | 2.91 ± 0.062 | 3.17 ± 0.46 |
| LQIDNARLAADDFRTKFETEQALR [KRT17] | 4.03 ± 0.24 | 4.27 ± 0.3 |
| MKTFVSPEAISPDLVKKIRDFHRK [TRIM15] | 3.17 ± 0.13 | 3.07 ± 0.16 |
| DYLPLTALVDGQIFCLHGGLSPSI [PPP2CA] | 2.58 ± 0.93 | 2.21 ± 0.41 |
| AAHPPLPLLPPAMGTEPAPSAPEA [TBX6] | 5.45 ± 0.24 | 5.52 ± 0.21 |
| YNPHPGFPELGYSYGGGSASSQHS [DVL3] | 2.95 ± 0.36 | 3.29 ± 0.26 |
| KRYGLGAHRGRLNIQAGINENDFY [CPXM2] | 2.45 ± 0.44 | 2.61 ± 0.28 |
| VYAGRPLSVIQMVAFLEQRASALL [FBXO34] | 1.98 ± 0.39 | 2.29 ± 0.35 |
| STSSSTQGDPAFPEMNGNGAVAPM [NOL4L] | 4.93 ± 0.34 | 5.05 ± 0.054 |
| HNLVVACEIQVRTLASAGGPDNLV [ADD1] | 2.51 ± 0.51 | 2.38 ± 0.52 |
| RRILDELTLCRSDLEAQMESLKEE [KRT33B] | 4.56 ± 0.14 | 4.66 ± 0.11 |
| PDALSDVGEVPYWVLEPVLEGWRP [ELOA2] | 3.07 ± 0.26 | 3.13 ± 0.54 |
| CWSRDGHKLVSASTDNIVSQWDVL [RBBP5] | 2.81 ± 0.12 | 2.87 ± 0.18 |

| Sequence | protein stability index (treatment: DMSO) | protein stability index (treatment: MLN4924 1 uM, 8 h) |
| --- | --- | --- |
| YLHTVSDCDTSSICEDSFDGRSLS [SCARA5] | 4.37 ± 0.13 | 4.51 ± 0.14 |
| ACCEFLESQLDPSNCLGIRDFAET [KLHL12] | 2.79 ± 0.37 | 3 ± 0.5 |
| SIDFNKDGHIDINEFLEAFRLVEK [PPEF2] | 2.88 ± 0.17 | 3.32 ± 0.4 |
| GRPIPGTSTRYEQPKCDNTARAHP [SMOC2] | 4.76 ± 0.4 | 4.78 ± 0.18 |
| VAKLQESQPGNAVIDKETIDLLAF [SDE2] | 2.98 ± 0.48 | 3.29 ± 0.37 |
| KDYYPINESLASLPLRVSFCPLSL [CLPTM1] | 2.16 ± 0.28 | 2.15 ± 0.096 |
| SSQKKDTSSSTVVSTQRSQDHFHV [TIA1] | 4.66 ± 0.21 | 4.64 ± 0.25 |
| PEARYLFLLDVIPVDGARYRWQGR [TBX6] | 2.08 ± 0.27 | 2.09 ± 0.31 |
| GKAVVSHSKGHKSSRQEKRPLCAQ [ELOA2] | 4.61 ± 0.29 | 4.64 ± 0.44 |
| SEEEKELYLNLALHLASDFFLKHP [PDS5B] | 2.19 ± 0.36 | 2.18 ± 0.36 |
| PGGGGSPGACPALGTKSCSSSCAV [RTN3] | 3.73 ± 0.42 | 4.07 ± 0.22 |
| LAARSGAAYGPGARGEDRAGPQSP [TSPAN10] | 5.15 ± 0.22 | 4.9 ± 0.09 |
| NPLICPVCTKYNLRITSGVVVCQC [RPAIN] | 3.91 ± 0.32 | 4.16 ± 0.25 |
| MGESSEDIDQMFSTLLGEMDLLTQ [APBB1IP] | 4.25 ± 0.11 | 4.08 ± 0.32 |
| RRHCQACRLKRCVDIGMMKEFILT [VDR] | 2.77 ± 0.72 | 2.15 ± 0.28 |
| YDVEMTDELVGLPFSSHTYSQASE [FBXO34] | 4.52 ± 0.32 | 4.52 ± 0.23 |
